Data: patent EP1817050B1

Assays:
[1] = biological target: IGF-II receptor (human, in membrane extracts of postmortem frontal lobe tissue) (human) (UniProt P11717); assay: saturation binding of [125I]-IGF-II to pooled human frontal lobe extracts, Braak 6; one-site fit/Scatchard
[2] = biological target: IGF-II receptor (human, in membrane extracts of postmortem frontal lobe tissue) (human) (UniProt P11717); assay: saturation binding of [125I]-IGF-II to pooled human frontal lobe extracts, Braak 0-1; one-site fit/Scatchard
[3] = biological target: IGF-II receptor (human, in membrane extracts of postmortem frontal lobe tissue) (human) (UniProt P11717); assay: saturation binding of [125I]-IGF-II to pooled human frontal lobe extracts, Braak 2-3; one-site fit/Scatchard
[4] = biological target: IGF-II receptor (human, in membrane extracts of postmortem frontal lobe tissue) (human) (UniProt P11717); assay: saturation binding of [125I]-IGF-II to pooled human frontal lobe extracts, Braak 4-5; one-site fit/Scatchard

Sequence of IGF-II receptor (human, in membrane extracts of postmortem frontal lobe tissue) (human) (P11717 41-2491 limits assumed): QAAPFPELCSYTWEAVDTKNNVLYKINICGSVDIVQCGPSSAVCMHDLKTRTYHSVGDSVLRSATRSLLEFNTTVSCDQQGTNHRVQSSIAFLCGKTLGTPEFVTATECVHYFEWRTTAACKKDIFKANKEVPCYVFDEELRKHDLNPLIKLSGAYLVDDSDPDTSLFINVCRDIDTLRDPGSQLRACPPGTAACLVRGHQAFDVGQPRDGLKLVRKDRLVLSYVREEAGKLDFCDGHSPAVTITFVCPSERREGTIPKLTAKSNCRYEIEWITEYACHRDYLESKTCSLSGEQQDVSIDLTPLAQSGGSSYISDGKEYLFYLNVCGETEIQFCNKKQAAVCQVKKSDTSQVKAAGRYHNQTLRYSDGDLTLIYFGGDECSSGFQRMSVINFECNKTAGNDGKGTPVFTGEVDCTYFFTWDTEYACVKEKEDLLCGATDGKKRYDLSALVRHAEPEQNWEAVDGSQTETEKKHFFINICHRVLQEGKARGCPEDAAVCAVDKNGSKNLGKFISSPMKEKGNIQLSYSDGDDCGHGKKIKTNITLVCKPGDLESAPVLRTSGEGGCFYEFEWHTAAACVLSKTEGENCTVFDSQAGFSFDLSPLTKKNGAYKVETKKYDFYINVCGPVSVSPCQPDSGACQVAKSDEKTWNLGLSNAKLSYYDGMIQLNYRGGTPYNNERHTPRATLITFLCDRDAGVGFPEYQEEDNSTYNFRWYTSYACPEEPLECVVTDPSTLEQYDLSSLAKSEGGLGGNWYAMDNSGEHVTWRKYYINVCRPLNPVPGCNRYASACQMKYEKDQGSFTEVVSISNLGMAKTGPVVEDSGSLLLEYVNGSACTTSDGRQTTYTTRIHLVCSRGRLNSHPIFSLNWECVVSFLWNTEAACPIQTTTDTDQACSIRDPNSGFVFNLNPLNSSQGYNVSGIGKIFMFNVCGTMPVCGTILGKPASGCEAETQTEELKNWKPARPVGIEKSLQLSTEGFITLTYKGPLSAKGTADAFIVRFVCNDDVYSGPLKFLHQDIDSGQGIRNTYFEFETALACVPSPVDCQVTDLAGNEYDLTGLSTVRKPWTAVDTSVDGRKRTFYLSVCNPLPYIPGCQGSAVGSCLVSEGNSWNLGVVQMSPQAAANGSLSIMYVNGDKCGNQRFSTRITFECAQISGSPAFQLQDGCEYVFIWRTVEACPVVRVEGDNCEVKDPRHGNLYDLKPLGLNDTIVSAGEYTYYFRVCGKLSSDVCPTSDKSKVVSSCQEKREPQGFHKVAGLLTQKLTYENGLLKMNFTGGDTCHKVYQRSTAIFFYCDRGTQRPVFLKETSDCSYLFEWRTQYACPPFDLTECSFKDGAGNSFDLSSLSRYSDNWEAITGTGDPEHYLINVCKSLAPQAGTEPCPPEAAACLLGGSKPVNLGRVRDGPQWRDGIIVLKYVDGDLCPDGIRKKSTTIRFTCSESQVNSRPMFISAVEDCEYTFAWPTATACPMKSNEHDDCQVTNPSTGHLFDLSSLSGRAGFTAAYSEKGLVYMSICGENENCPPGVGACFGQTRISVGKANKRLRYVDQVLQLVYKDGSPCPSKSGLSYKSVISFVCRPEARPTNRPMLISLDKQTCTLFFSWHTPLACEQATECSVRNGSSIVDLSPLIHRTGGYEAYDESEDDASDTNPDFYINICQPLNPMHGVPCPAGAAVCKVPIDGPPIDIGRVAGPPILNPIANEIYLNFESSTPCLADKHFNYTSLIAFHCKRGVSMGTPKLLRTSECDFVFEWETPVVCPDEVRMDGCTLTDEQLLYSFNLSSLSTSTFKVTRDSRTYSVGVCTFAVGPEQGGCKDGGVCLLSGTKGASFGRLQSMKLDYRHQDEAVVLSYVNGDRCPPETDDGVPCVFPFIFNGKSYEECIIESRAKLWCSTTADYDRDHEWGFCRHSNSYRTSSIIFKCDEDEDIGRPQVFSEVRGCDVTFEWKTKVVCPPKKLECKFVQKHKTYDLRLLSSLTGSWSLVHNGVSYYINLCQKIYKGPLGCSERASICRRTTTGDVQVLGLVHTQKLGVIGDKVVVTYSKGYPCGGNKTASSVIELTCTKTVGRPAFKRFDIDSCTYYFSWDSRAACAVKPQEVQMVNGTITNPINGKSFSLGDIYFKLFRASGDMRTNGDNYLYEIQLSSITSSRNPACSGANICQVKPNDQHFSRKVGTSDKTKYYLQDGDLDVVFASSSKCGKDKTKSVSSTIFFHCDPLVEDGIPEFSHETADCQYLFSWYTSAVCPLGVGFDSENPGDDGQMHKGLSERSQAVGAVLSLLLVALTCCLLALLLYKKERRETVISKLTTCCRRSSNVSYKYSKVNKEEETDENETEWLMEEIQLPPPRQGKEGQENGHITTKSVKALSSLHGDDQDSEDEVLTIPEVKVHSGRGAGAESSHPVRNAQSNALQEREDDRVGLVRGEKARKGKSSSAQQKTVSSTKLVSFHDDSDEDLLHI

Substance: [125I]-labeled IGF-II (ligand)
- BMAX (fmol/mg protein) [1]: 4.71
- BMAX (fmol/mg protein) [2]: 16.8
- BMAX (fmol/mg protein) [3]: 12.5
- BMAX (fmol/mg protein) [4]: 8.14
